Data: article PMC9463278, “Development and Validation of Arc Nanobodies: New Tools for Probing Arc Dynamics and Function” (Neurochemical Research, 2022)

B1: mutant rat Arc (Arc^s113−119A) (natural protein, UniProt Q63053 1-396, looked up)
chain: MELDHMTTGGLHAYPAPRGGPAAKPNVILQIGKCRAEMLEHVRRTHRHLLTEVSKQVERELKGLHRSVGKLENNLDGYVPTGDSQRWKKSIKACLCRCQETIANLERWVKREAAAAAAAFYRLERWADRLESMGGKYPVGSEPARHTVSVGVGGPEPYCQEADGYDYTVSPYAITPPPAAGELPEQESVGAQQYQSWVPGEDGQPSPGVDTQIFEDPREFLSHLEEYLRQVGGSEEYWLSQIQNHMNGPAKKWWEFKQGSVKNWVEFKKEFLQYSEGTLSREAIQRELDLPQKQGEPLDQFLWRKRDLYQTLYVDAEEEEIIQYVVGTLQPKFKRFLRHPLPKTLEQLIQRGMEVQDGLEQAAEPSVTPLPTEDETEALTPALTSESVASDRTQPE
notes: Activity-regulated cytoskeleton-associated protein (Arc, Arg3.1), rat; residues of the oligomerization motif 113-MHVWREV-119 substituted to alanine; also called purified mutant Arc^s113−119A protein; activity-regulated cytoskeleton-associated protein; source: purified recombinant

Legend:
[1] = molecular target: Arc NL (Rattus norvegicus) (UniProt Q63053); test: ITC; details: cited from earlier work
[2] = molecular target: the molecule itself; test: native gel or EMSA; different amounts of purified Arc^s113−119A in native sample buffer, native PAGE on 4-15% Tris-Glycine gels; bands detected by immunoblotting with ALFA-ArcNbs and anti-ALFA HRP-coupled sdAb

Row | Molecule | Kd [1] [nM] | binding result [2]
1 | stargazin (from UniProt Q71RJ2) | 34.9 | –
2 | B1 | – | binds
